Among the data in the Immune Epitope Database (IEDB) are Kd values, retold here.

Among the targets are HLA-A*02:01; HLA-A*24:02; HLA-A*01:01; HLA-B*44:02; HLA-A*03:01; HLA-B*07:02.
Assay in all cases: IEDB peptide-MHC binding, purified MHC/competitive/fluorescence; filed as Kd, often an IC50 or EC50 that approximates it; ≥ and ≤ were set here for values at or beyond the usual limits of such assays
Holding throughout (conditions): source organism: Plasmodium falciparum

Bounds are passed on as bounds.

Broadly, the Kd is the equilibrium constant for the complex coming apart. A low value points to a tighter complex.

As for CKMEKCSSV, in the assay with HLA-A*02:01, the Kd is no less than 100 µM.
CKMEKCSSVF registered a Kd with HLA-A*24:02 of no less than 250 µM.
The sequence CSSVFNVVN gave a Kd in the assay with HLA-A*01:01 of no less than 82.5 µM.
In the case of DELDYANDI, the dissociation constant (Kd) with HLA-B*44:02 was no less than 277 µM.
Still for that read-out and setting: the figure for DENANANNA is no less than 896 µM.
In the assay with HLA-A*01:01, ELDYENDIEK returned a Kd of no less than 100 µM.
EWSPCSVTCG had a Kd with HLA-A*24:02 of no less than 685 µM.
As to HIKEYLNKI, the Kd with HLA-A*02:01 was no less than 259 µM.
In the case of HITEYLKKI, the Kd with HLA-A*02:01 was no less than 148 µM.
IEKKICKMEK: the Kd with HLA-A*03:01 is no less than 100 µM.
For the sequence IEQYLKKIQY, the Kd was no less than 100 µM in the assay with HLA-A*01:01 and no less than 157 µM in the assay with HLA-B*44:02.
Consider IQNSLSTEW, for which the Kd is no less than 21.3 µM in the assay with HLA-A*24:02 and no less than 136 µM with HLA-B*44:02.
In the assay with HLA-B*44:02, KDELDYENDI showed a Kd of no less than 100 µM.
Same read-out and setting: the same measure for KEYLNKIQNS: no less than 100 µM.
Turning to KMEKCSSVF, the Kd in the assay with HLA-A*01:01 and with HLA-B*07:02 was no less than 100 µM in each case.
In the assay with HLA-B*07:02, KPGSADKPKD displayed a Kd of no less than 100 µM.
Take KPGSANKPKD: the Kd with HLA-B*07:02 was no less than 100 µM.
LDYANDIEK: the Kd with HLA-A*03:01 is no less than 100 µM.
LIMVLSFLF yielded a Kd with HLA-A*24:02 of 19.3 µM.
LSTEWSPCS gave a Kd in the assay with HLA-A*01:01 of no less than 100 µM.
In the assay with HLA-B*44:02, MEKCSSVFN registered a Kd of no less than 143 µM.
For the sequence MPNDPNRNV, the Kd in the assay with HLA-B*07:02 is no less than 511 µM; with HLA-B*44:02, no less than 100 µM.
Turning to NEEPSDKHI, the Kd with HLA-B*44:02 is no less than 100 µM.
As to NEEPSDKHIK, the Kd with HLA-A*01:01 and in the assay with HLA-B*44:02 was no less than 100 µM in each case.
Consider NEEPSDQHI, for which, in the assay with HLA-B*44:02, the Kd was no less than 100 µM.
NPDPNANPNV yielded a Kd in the assay with HLA-B*07:02 of no less than 100 µM.
The sequence NPNANPNAN showed a dissociation constant Kd in the assay with HLA-B*07:02 of no less than 100 µM.
NPNANPNANP: the dissociation constant Kd with HLA-B*07:02 was no less than 100 µM.
Same read-out and setting: the same measure for NPNVDPNANP: no less than 100 µM.
Regarding NSSIGLIMV, in the assay with HLA-A*01:01, the Kd was no less than 215 µM.
Same read-out and setting: the same measure for NVDENANAN: no less than 100 µM; for NVDENANANN: no less than 667 µM; for NVDPNANPNV: no less than 100 µM.
The same measure, in the same setting: the figure for PSDKHIEQY is 2 µM; for PSDKHIKEY it is no less than 24.8 µM; for PSDKHITEY it is 2.67 µM.
Regarding QLDYENDIEK, the Kd was no less than 726 µM with HLA-A*01:01 and no less than 100 µM with HLA-A*03:01.
QVRIKPGSA: the Kd in the assay with HLA-B*07:02 was no less than 134 µM.
Regarding RIKPGSADK, in the assay with HLA-A*03:01, the Kd came out at 17.7 µM.
As to RIKPGSANK, the Kd in the assay with HLA-A*03:01 was no less than 21.3 µM.
In the case of SADKPKDQLD, in the assay with HLA-A*01:01, the dissociation constant Kd is 8.97 µM.
The sequence SPCSVTCGNG displayed a Kd with HLA-B*07:02 of no less than 100 µM.
For STEWSPCSV, the Kd in the assay with HLA-A*01:01 stood at 3.18 µM.
As to SVFNVVNSSI, the Kd is no less than 342 µM with HLA-A*02:01, no less than 100 µM with HLA-A*03:01 and no less than 100 µM with HLA-B*07:02.
In the case of SVTCGNGIQV, the figures for the Kd with HLA-A*02:01 and in the assay with HLA-B*07:02 were no less than 489 µM and no less than 100 µM, respectively.
With TEWSPCSVT, the Kd with HLA-B*44:02 was no less than 100 µM.
In turn, TEYLKKIQN registered a Kd with HLA-B*44:02 of no less than 100 µM.
Take VTCGNGIQV: the Kd in the assay with HLA-A*01:01 and with HLA-A*03:01 was no less than 100 µM in each case.
Turning to YLKIIQNSL, the Kd with HLA-A*02:01 was found to be 4.88 µM.
Regarding YLKKIQNSL, the equilibrium dissociation constant (Kd) with HLA-A*02:01 came out at 2.18 µM; with HLA-A*24:02, 11.2 µM; with HLA-B*07:02 it was 9.2 µM.
Turning to YLKKIQYSL, in the assay with HLA-A*02:01, the Kd was 2.58 µM.
